Data as given in article PMC6018666, “Structural basis for terminal loop recognition and stimulation of pri-miRNA-18a processing by hnRNP A1”.

Tests used:
hnRNP A1 RRM1 [1] = biological target: T1, hnRNP A1 RRM1 (UniProt P09651 1-97); test: EMSA; ITC: 20 mM Na phosphate pH 6.5, 100 mM NaCl, no DTT, 25 C; EMSA: 100 mM KCl, 20% glycerol, 0.2 mM EDTA, 100 mM Tris pH 8.0, 0.5 mM DTT, 0.5 mM ATP, 20 mM creatine phosphate, 3.2 mM MgCl2, 4 C; footprint: 12 mM Tris-HCl pH 7.5, 48 mM NaCl, 1.2 mM MgCl2, 37 C; conditions: protein: recombinant; tags: His tag removed by TEV; label: internal radiolabel
T1 sequence (P09651 1-97): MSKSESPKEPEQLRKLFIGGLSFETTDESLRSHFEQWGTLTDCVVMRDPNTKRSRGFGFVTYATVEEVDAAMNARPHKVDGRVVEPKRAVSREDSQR

hnRNP A1 RRM2 [2] = biological target: T2, hnRNP A1 RRM2 (UniProt P09651 94-196); test: as above; conditions: protein: recombinant; tags: His tag removed by TEV; label: internal radiolabel
T2 sequence (P09651 94-196): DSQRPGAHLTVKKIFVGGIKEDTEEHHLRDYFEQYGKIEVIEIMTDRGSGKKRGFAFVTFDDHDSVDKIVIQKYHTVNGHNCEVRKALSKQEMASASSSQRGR

UP1 (hnRNP A1 RRM1-RRM2) [3] = biological target: T3, UP1 (hnRNP A1 RRM1-RRM2) (UniProt P09651 1-196); test: as above; conditions: protein: recombinant; tags: His tag removed by TEV; label: internal radiolabel
T3 sequence (P09651 1-196): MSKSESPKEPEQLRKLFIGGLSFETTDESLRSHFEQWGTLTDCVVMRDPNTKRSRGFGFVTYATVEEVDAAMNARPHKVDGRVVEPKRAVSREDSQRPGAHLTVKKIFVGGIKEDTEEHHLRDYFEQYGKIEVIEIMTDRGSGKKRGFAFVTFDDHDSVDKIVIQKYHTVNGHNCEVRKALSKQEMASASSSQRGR

UP1 (hnRNP A1 RRM1-RRM2) [4] = biological target: T3, UP1 (hnRNP A1 RRM1-RRM2); test: ITC; N=0.98; ITC: 20 mM Na phosphate pH 6.5, 100 mM NaCl, no DTT, 25 C; EMSA: 100 mM KCl, 20% glycerol, 0.2 mM EDTA, 100 mM Tris pH 8.0, 0.5 mM DTT, 0.5 mM ATP, 20 mM creatine phosphate, 3.2 mM MgCl2, 4 C; footprint: 12 mM Tris-HCl pH 7.5, 48 mM NaCl, 1.2 mM MgCl2, 37 C; conditions: protein: recombinant; tags: His tag removed by TEV; single strand
UP1 (hnRNP A1 RRM1-RRM2) [5] = biological target: T3, UP1 (hnRNP A1 RRM1-RRM2); test: ITC; N=1.06; ITC: 20 mM Na phosphate pH 6.5, 100 mM NaCl, no DTT, 25 C; EMSA: 100 mM KCl, 20% glycerol, 0.2 mM EDTA, 100 mM Tris pH 8.0, 0.5 mM DTT, 0.5 mM ATP, 20 mM creatine phosphate, 3.2 mM MgCl2, 4 C; footprint: 12 mM Tris-HCl pH 7.5, 48 mM NaCl, 1.2 mM MgCl2, 37 C; conditions: protein: recombinant; tags: His tag removed by TEV; single strand
UP1 (hnRNP A1 RRM1-RRM2) [6] = biological target: T3, UP1 (hnRNP A1 RRM1-RRM2); test: ITC; not fitted by one-site model; ITC: 20 mM Na phosphate pH 6.5, 100 mM NaCl, no DTT, 25 C; EMSA: 100 mM KCl, 20% glycerol, 0.2 mM EDTA, 100 mM Tris pH 8.0, 0.5 mM DTT, 0.5 mM ATP, 20 mM creatine phosphate, 3.2 mM MgCl2, 4 C; footprint: 12 mM Tris-HCl pH 7.5, 48 mM NaCl, 1.2 mM MgCl2, 37 C; conditions: protein: recombinant; tags: His tag removed by TEV; hairpin
UP1 (hnRNP A1 RRM1-RRM2) [7] = biological target: T3, UP1 (hnRNP A1 RRM1-RRM2); test: ITC; N=0.75; ITC: 20 mM Na phosphate pH 6.5, 100 mM NaCl, no DTT, 25 C; EMSA: 100 mM KCl, 20% glycerol, 0.2 mM EDTA, 100 mM Tris pH 8.0, 0.5 mM DTT, 0.5 mM ATP, 20 mM creatine phosphate, 3.2 mM MgCl2, 4 C; footprint: 12 mM Tris-HCl pH 7.5, 48 mM NaCl, 1.2 mM MgCl2, 37 C; conditions: protein: recombinant; tags: His tag removed by TEV; single strand
hnRNP A1 RRM1 [8] = biological target: T1, hnRNP A1 RRM1; test: ITC; N=1.01; ITC: 20 mM Na phosphate pH 6.5, 100 mM NaCl, no DTT, 25 C; EMSA: 100 mM KCl, 20% glycerol, 0.2 mM EDTA, 100 mM Tris pH 8.0, 0.5 mM DTT, 0.5 mM ATP, 20 mM creatine phosphate, 3.2 mM MgCl2, 4 C; footprint: 12 mM Tris-HCl pH 7.5, 48 mM NaCl, 1.2 mM MgCl2, 37 C; conditions: protein: recombinant; tags: His tag removed by TEV; single strand
hnRNP A1 RRM2 [9] = biological target: T2, hnRNP A1 RRM2; test: ITC; N=1.09; text gives 6.9; ITC: 20 mM Na phosphate pH 6.5, 100 mM NaCl, no DTT, 25 C; EMSA: 100 mM KCl, 20% glycerol, 0.2 mM EDTA, 100 mM Tris pH 8.0, 0.5 mM DTT, 0.5 mM ATP, 20 mM creatine phosphate, 3.2 mM MgCl2, 4 C; footprint: 12 mM Tris-HCl pH 7.5, 48 mM NaCl, 1.2 mM MgCl2, 37 C; conditions: protein: recombinant; tags: His tag removed by TEV; single strand
UP1 (hnRNP A1 RRM1-RRM2) [10] = biological target: T3, UP1 (hnRNP A1 RRM1-RRM2); test: ITC; N=1.35; ITC: 20 mM Na phosphate pH 6.5, 100 mM NaCl, no DTT, 25 C; EMSA: 100 mM KCl, 20% glycerol, 0.2 mM EDTA, 100 mM Tris pH 8.0, 0.5 mM DTT, 0.5 mM ATP, 20 mM creatine phosphate, 3.2 mM MgCl2, 4 C; footprint: 12 mM Tris-HCl pH 7.5, 48 mM NaCl, 1.2 mM MgCl2, 37 C; conditions: protein: recombinant; tags: His tag removed by TEV; hairpin
UP1 (hnRNP A1 RRM1-RRM2) [11] = biological target: T3, UP1 (hnRNP A1 RRM1-RRM2); test: ITC; N=1.07; ITC: 20 mM Na phosphate pH 6.5, 100 mM NaCl, no DTT, 25 C; EMSA: 100 mM KCl, 20% glycerol, 0.2 mM EDTA, 100 mM Tris pH 8.0, 0.5 mM DTT, 0.5 mM ATP, 20 mM creatine phosphate, 3.2 mM MgCl2, 4 C; footprint: 12 mM Tris-HCl pH 7.5, 48 mM NaCl, 1.2 mM MgCl2, 37 C; conditions: protein: recombinant, tags: His tag removed by TEV
UP1 (hnRNP A1 RRM1-RRM2) [12] = biological target: T3, UP1 (hnRNP A1 RRM1-RRM2); test: ITC; N=1.08; ITC: 20 mM Na phosphate pH 6.5, 100 mM NaCl, no DTT, 25 C; EMSA: 100 mM KCl, 20% glycerol, 0.2 mM EDTA, 100 mM Tris pH 8.0, 0.5 mM DTT, 0.5 mM ATP, 20 mM creatine phosphate, 3.2 mM MgCl2, 4 C; footprint: 12 mM Tris-HCl pH 7.5, 48 mM NaCl, 1.2 mM MgCl2, 37 C; conditions: protein: recombinant; tags: His tag removed by TEV; single strand
UP1(R75E/R88E) = UP1(R75E/R88E) (UniProt P09651 1-196, R75E;R88E); test: ITC; N=1.1; ITC: 20 mM Na phosphate pH 6.5, 100 mM NaCl, no DTT, 25 C; EMSA: 100 mM KCl, 20% glycerol, 0.2 mM EDTA, 100 mM Tris pH 8.0, 0.5 mM DTT, 0.5 mM ATP, 20 mM creatine phosphate, 3.2 mM MgCl2, 4 C; footprint: 12 mM Tris-HCl pH 7.5, 48 mM NaCl, 1.2 mM MgCl2, 37 C; conditions: protein: recombinant; tags: His tag removed by TEV; single strand
Sequence of UP1(R75E/R88E) (P09651 1-196 R75E/R88E): as the sequence (P09651 1-196) above, with R75E, R88E counted along it

UP1 (hnRNP A1 RRM1-RRM2) [13] = biological target: T3, UP1 (hnRNP A1 RRM1-RRM2); test: ITC; N=1.01; ITC: 20 mM Na phosphate pH 6.5, 100 mM NaCl, no DTT, 25 C; EMSA: 100 mM KCl, 20% glycerol, 0.2 mM EDTA, 100 mM Tris pH 8.0, 0.5 mM DTT, 0.5 mM ATP, 20 mM creatine phosphate, 3.2 mM MgCl2, 4 C; footprint: 12 mM Tris-HCl pH 7.5, 48 mM NaCl, 1.2 mM MgCl2, 37 C; conditions: protein: recombinant; tags: His tag removed by TEV; single strand
UP1(R75E/R88A) = UP1(R75E/R88A) (UniProt P09651 1-196, R75E;R88A); test: ITC; N=1.08; ITC: 20 mM Na phosphate pH 6.5, 100 mM NaCl, no DTT, 25 C; EMSA: 100 mM KCl, 20% glycerol, 0.2 mM EDTA, 100 mM Tris pH 8.0, 0.5 mM DTT, 0.5 mM ATP, 20 mM creatine phosphate, 3.2 mM MgCl2, 4 C; footprint: 12 mM Tris-HCl pH 7.5, 48 mM NaCl, 1.2 mM MgCl2, 37 C; conditions: protein: recombinant; tags: His tag removed by TEV; single strand
Sequence of UP1(R75E/R88A) (P09651 1-196 R75E/R88A): as the sequence (P09651 1-196) above, with R75E, R88A counted along it

GUGAAGUAGAUUAGC (structured_RNA) [pri-mir-18a terminal loop RNA]: no binding (hnRNP A1 RRM1 [1]); no binding (hnRNP A1 RRM2 [2]); binds (UP1 (hnRNP A1 RRM1-RRM2) [3]).

UUUAGAUUAGCA (ssRNA) [12-mer-mut3] gave a Kd (UP1 (hnRNP A1 RRM1-RRM2) [4]) of 8.33 ± 1.35 nM.

AGUUUAUUAGCA (ssRNA) [12-mer-mut1] gave a Kd (UP1 (hnRNP A1 RRM1-RRM2) [5]) of 154 ± 11 nM.

GGUGAAGUAGAUUAGCC (structured_RNA) [17-mer]: binds (UP1 (hnRNP A1 RRM1-RRM2) [6]).

AGUAGAU (ssRNA) [7-mer] was tested, and the Kd (UP1 (hnRNP A1 RRM1-RRM2) [7]) was 3400 ± 120 nM, the Kd (hnRNP A1 RRM1 [8]) was 20400 ± 1060 nM and the Kd (hnRNP A1 RRM2 [9]) was 6800 ± 140 nM.

B1: pri-mir-18a 71-mer (structured_RNA)
RNA: GGUUCUAAGGUGCAUCUAGUGCAGAUAGUGAAGUAGAUUAGCAUCUACUGCCCUAAGUGCUCCUUCUGGCC
For B1, the Kd (UP1 (hnRNP A1 RRM1-RRM2) [10]) was 148 ± 8.9 nM.

With UAGAUUAGCA (ssRNA) [10-mer] the Kd (UP1 (hnRNP A1 RRM1-RRM2) [11]; single strand) was 19.1 ± 6.73 nM.

GGUGAAGUAGAUUCGCC (structured_RNA) [17-mer(A35C)] was tested, and the Kd (UP1 (hnRNP A1 RRM1-RRM2) [11]; hairpin) was 3100 ± 190 nM.

Binder AGUAGAUUUUCA (ssRNA) [12-mer-mut2] has a Kd (UP1 (hnRNP A1 RRM1-RRM2) [12]) of 330 ± 26.5 nM.

AGUAGAUUAGCA (ssRNA) [12-mer] was tested, and the Kd (UP1(R75E/R88E)) was 40.1 ± 4.4 nM, the Kd (UP1 (hnRNP A1 RRM1-RRM2) [13]) was 15.5 ± 3.4 nM and the Kd (UP1(R75E/R88A)) was 19 ± 2.05 nM.
